Substrate in the data set: NCC(=O)N1CCC[C@H]1C(=O)Nc1ccc([N+](=O)[O-])cc1
Kind of data set: purified protein. The data set is classed as biochemical, Lactobacillus helveticus. The conditions noted are these: 50 mM MES pH 6.5, 40 °C, 200 nM enzyme, 75-500 μM substrate.

Changes are numbered by the printed parent chain. Names and notes keep the numbering of the source.

B1: PepX (x-prolyl aminodipeptidase) from Lactobacillus helveticus (Lactobacillus helveticus) (protein)
chain: MKYNQYAYVETDFQQQVKELIDINFLPKNYQVWDFSSLLAKLVKNAIAEAKTDAAKNAKLAEFAVSDHQTLADFLKEKPTEIGTKQFYNVALQLLGYHVHYDYDFADPTGFMQRNALPFLQDISDNQKLISAFYRLLNTRAKNGQILLDVMAGKGYFTQFWGQNKFKFFNGKSIPVFDTNKVIREVVYVETDLDTDHDGKSDLIQVTVFRPEETNKGLKVPALYTASPYFGGIIANEKRNHNVDENLSDSTEWNDPQYVHSPIVKAEKPDGSSRPATEEAVHKSSYPLNEYMLARGFASVFAGAIGTRGSDGVRITGAPEETESAAAVIEWLHGDRVAYTDRTRTVQTTADWCNGNIGMTGRSYLGTLQIAIATTGVKGLKTVVSEAAISSWYDYYREHGLVIAPEACQGEDLDLLAETCQSNLWDAGSYLKIKPEYDKMQKQLREKEDRNTGQYSDFWEARNYRHHADGIKCSWISVHGLNDWNVKPKNVYKIWQLVKKMPMKHHLFLHQGPHYNMNNLVSIDFTDLMNLWFVHELLGIENNAYNQWPTVMIQDNLQADKWHEEPDWSNDLGQEKIYYPTDEGELFQDGNGKAQKSFTDVGGIEFKKAGISESDWQYKFICGDEKWAKPSLRFETDEFTHPTTIVGRPEVKVRVSASLPKGEISVALVELGERQRLTATPKFLMHGGQELGYRFGTDTLQEFVPDKKTKAKLITKAHMNLQNFKDMKKPEAIDADKFYDLDFLLQPTYYTIPSGSKLALIIYSTDQGMTKRPLEDETYTIDLANTEIKFYEK
notes: recombinant, N-terminal six-histidine tag, pET14b, E. coli BL21(DE3)pLysS; PepX known to form dimers
B1: the Km came out at 302 µM.

B2: PepX (x-prolyl aminodipeptidase) from Lactobacillus helveticus (Lactobacillus helveticus; D196A) (protein)
chain: B1 chain with D196A
notes: as for B1
As for B2, the Km was determined as 315 µM.

The values are drawn from article PMC10536834, “Elucidating the Role of a Calcium-Binding Loop in an x-Prolyl Aminodipeptidase from Lb. helveticus” (ACS Omega, 2023).
